Results as given in US20260049138A1 (Chugai, published 2026).
Positions count from the first letter of the chain named. In names and notes the source's numbering stands.

B1: GLS3000 L27bY one-arm antibody (antibody, human IgG1, kappa, L234A L235A, N297A, name in Kabat numbering)
heavy: QVQLVESGGGVVQPGRSLRLSCAASGFTFSNAWMHWVRQAPGKGLEWVAQIKAKSNNYATYYAESVKGRFTISRDDSKNSLYLQMNSLKTEDTAVYYCRYVHYGAYYGVDAWGQGTTVTVSSASTKGPSVFPLAPSSKSTSGGTAALGCLVKDYFPEPVTVSWNSGALTSGVHTFPAVLQSSGLYSLSSVVTVPSSSLGTQTYICNVNHKPSNTKVDKKVEPKSCDKTHTCPPCPAPEAAGGPSVFLFPPKPKDTLMISRTPEVTCVVVDVSHEDPEVKFNWYVDGVEVHNAKTKPREEQYASTYRVVSVLTVLHQDWLNGKEYKCKVSNKALPAPIEKTISKAKGQPREPQVYTLPPSRCELTKNQVSLSCAVKGFYPSDIAVEWESNGQPENNYKTTPPVLDSDGSFFLVSKLTVDKSRWQQGNVFSCSVMHEALHNHYTQKSLSLSPDYKDDDDK
chain: EPKSSDKTHTCPPCPAPELLGGPSVFLFPPKPKDTLMISRTPEVTCVVVDVSHEDPEVKFNWYVDGVEVHNAKTKPREEQYNSTYRVVSVLTVLHQDWLNGKEYKCKVSNKALPAPIEKTISKAKGQPREPQVCTLPPSRDELTKNQVSLWCLVKGFYPSDIAVEWESNGQPENNYKTTPPVLDSDGSFFLYSKLTVDKSRWQQGNVFSCSVMHEALHNRYTQKSLSLSP
light: DIVMTQSPLSLPVTPGEPASISCRSSQSYVHSNRNTYLHWYQQKPGQAPRLLIYKVSNRFSGVPDRFSGSGSGTDFTLKISRVEAEDVGVYYCGQGTQVPYTFGQGTKLEIKRTVAAPSVFIFPPSDEQLKSGTASVVCLLNNFYPREAKVQWKVDNALQSGNSQESVTEQDSKDSTYSLSSTLTLSKADYEKHKVYACEVTHQGLSSPVTKSFNRGEC
B2: GLS3000 L33F one-arm antibody (antibody, human IgG1, kappa, L234A L235A, N297A, name in Kabat numbering)
heavy: B1 heavy
chain: B1 chain
light: B1 light with Y29L, L38F
B3: GLS3000 N30D one-arm antibody (antibody, human IgG1, kappa, L234A L235A, N297A, name in Kabat numbering)
heavy: B1 heavy
chain: B1 chain
light: B1 light with Y29L, N35D
B4: GLS3000 N28K one-arm antibody (antibody, human IgG1, kappa, L234A L235A, N297A, name in Kabat numbering)
heavy: B1 heavy
chain: B1 chain
light: B1 light with Y29L, N33K
B5: GLS3000 N28T one-arm antibody (antibody, human IgG1, kappa, L234A L235A, N297A, name in Kabat numbering)
heavy: B1 heavy
chain: B1 chain
light: B1 light with Y29L, N33T
B6: GLS3000 N28I one-arm antibody (antibody, human IgG1, kappa, L234A L235A, N297A, name in Kabat numbering)
heavy: B1 heavy
chain: B1 chain
light: B1 light with Y29L, N33I
B7: GLS3000 N28Y one-arm antibody (antibody, human IgG1, kappa, L234A L235A, N297A, name in Kabat numbering)
heavy: B1 heavy
chain: B1 chain
light: B1 light with Y29L, N33Y
B8: GLS3000 N30F one-arm antibody (antibody, human IgG1, kappa, L234A L235A, N297A, name in Kabat numbering)
heavy: B1 heavy
chain: B1 chain
light: B1 light with Y29L, N35F
B9: GLS3000 N28M one-arm antibody (antibody, human IgG1, kappa, L234A L235A, N297A, name in Kabat numbering)
heavy: B1 heavy
chain: B1 chain
light: B1 light with Y29L, N33M
B10: GLS3000 N28L one-arm antibody (antibody, human IgG1, kappa, L234A L235A, N297A, name in Kabat numbering)
heavy: B1 heavy
chain: B1 chain
light: B1 light with Y29L, N33L
B11: GLS3000 N30K one-arm antibody (antibody, human IgG1, kappa, L234A L235A, N297A, name in Kabat numbering)
heavy: B1 heavy
chain: B1 chain
light: B1 light with Y29L, N35K
B12: GLS3000 N28W one-arm antibody (antibody, human IgG1, kappa, L234A L235A, N297A, name in Kabat numbering)
heavy: B1 heavy
chain: B1 chain
light: B1 light with Y29L, N33W
B13: GLS3000 L33D one-arm antibody (antibody, human IgG1, kappa, L234A L235A, N297A, name in Kabat numbering)
heavy: B1 heavy
chain: B1 chain
light: B1 light with Y29L, L38D
B14: GLS3000 N30H one-arm antibody (antibody, human IgG1, kappa, L234A L235A, N297A, name in Kabat numbering)
heavy: B1 heavy
chain: B1 chain
light: B1 light with Y29L, N35H
B15: GLS3000 N28P one-arm antibody (antibody, human IgG1, kappa, L234A L235A, N297A, name in Kabat numbering)
heavy: B1 heavy
chain: B1 chain
light: B1 light with Y29L, N33P
B16: GLS3000 N28F one-arm antibody (antibody, human IgG1, kappa, L234A L235A, N297A, name in Kabat numbering)
heavy: B1 heavy
chain: B1 chain
light: B1 light with Y29L, N33F
B17: GLS3000 N30G one-arm antibody (antibody, human IgG1, kappa, L234A L235A, N297A, name in Kabat numbering)
heavy: B1 heavy
chain: B1 chain
light: B1 light with Y29L, N35G
B18: GLS3000 L33E one-arm antibody (antibody, human IgG1, kappa, L234A L235A, N297A, name in Kabat numbering)
heavy: B1 heavy
chain: B1 chain
light: B1 light with Y29L, L38E
B19: GLS3000 N28V one-arm antibody (antibody, human IgG1, kappa, L234A L235A, N297A, name in Kabat numbering)
heavy: B1 heavy
chain: B1 chain
light: B1 light with Y29L, N33V
B20: GLS3000 L33M one-arm antibody (antibody, human IgG1, kappa, L234A L235A, N297A, name in Kabat numbering)
heavy: B1 heavy
chain: B1 chain
light: B1 light with Y29L, L38M
B21: GLS3000 N30I one-arm antibody (antibody, human IgG1, kappa, L234A L235A, N297A, name in Kabat numbering)
heavy: B1 heavy
chain: B1 chain
light: B1 light with Y29L, N35I
B22: GLS3000 N28A one-arm antibody (antibody, human IgG1, kappa, L234A L235A, N297A, name in Kabat numbering)
heavy: B1 heavy
chain: B1 chain
light: B1 light with Y29L, N33A
B23: GLS3000 N28S one-arm antibody (antibody, human IgG1, kappa, L234A L235A, N297A, name in Kabat numbering)
heavy: B1 heavy
chain: B1 chain
light: B1 light with Y29L, N33S
B24: GLS3000 N28H one-arm antibody (antibody, human IgG1, kappa, L234A L235A, N297A, name in Kabat numbering)
heavy: B1 heavy
chain: B1 chain
light: B1 light with Y29L, N33H
B25: GLS3000 N30A one-arm antibody (antibody, human IgG1, kappa, L234A L235A, N297A, name in Kabat numbering)
heavy: B1 heavy
chain: B1 chain
light: B1 light with Y29L, N35A
B26: GLS3000 N30E one-arm antibody (antibody, human IgG1, kappa, L234A L235A, N297A, name in Kabat numbering)
heavy: B1 heavy
chain: B1 chain
light: B1 light with Y29L, N35E
B27: GLS3000 N28Q one-arm antibody (antibody, human IgG1, kappa, L234A L235A, N297A, name in Kabat numbering)
heavy: B1 heavy
chain: B1 chain
light: B1 light with Y29L, N33Q
B28: GLS3000 N28D one-arm antibody (antibody, human IgG1, kappa, L234A L235A, N297A, name in Kabat numbering)
heavy: B1 heavy
chain: B1 chain
light: B1 light with Y29L, N33D
B29: GLS3000 N28E one-arm antibody (antibody, human IgG1, kappa, L234A L235A, N297A, name in Kabat numbering)
heavy: B1 heavy
chain: B1 chain
light: B1 light with Y29L, N33E
B30: GLS3000 N28G one-arm antibody (antibody, human IgG1, kappa, L234A L235A, N297A, name in Kabat numbering)
heavy: B1 heavy
chain: B1 chain
light: B1 light with Y29L, N33G
B31: GLS3000 L33P one-arm antibody (antibody, human IgG1, kappa, L234A L235A, N297A, name in Kabat numbering)
heavy: B1 heavy
chain: B1 chain
light: B1 light with Y29L, L38P
B32: GLS3000 L33A one-arm antibody (antibody, human IgG1, kappa, L234A L235A, N297A, name in Kabat numbering)
heavy: B1 heavy
chain: B1 chain
light: B1 light with Y29L, L38A
B33: GLS3000 L33I one-arm antibody (antibody, human IgG1, kappa, L234A L235A, N297A, name in Kabat numbering)
heavy: B1 heavy
chain: B1 chain
light: B1 light with Y29L, L38I
B34: GLS3000 L33V one-arm antibody (antibody, human IgG1, kappa, L234A L235A, N297A, name in Kabat numbering)
heavy: B1 heavy
chain: B1 chain
light: B1 light with Y29L, L38V

biological target: T1, CD3ε homodimer protein (human, UniProt P07766 23-126, limits assumed); assay: SPR Biacore T200, CD3ε homodimer on chip;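 also: Light-chain single-residue variant antibodies injected over amine-coupled CD3ε homodimer on a CM4 chip at 25 °C, bound amount divided by that of the GLS3000-containing antibody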
T1 construct: also called CD3 (CD3ε)
T1 sequence (P07766 23-126 limits assumed): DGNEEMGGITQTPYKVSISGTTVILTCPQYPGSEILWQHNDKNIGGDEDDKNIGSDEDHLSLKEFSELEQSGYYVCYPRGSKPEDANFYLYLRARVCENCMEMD

ratio of amount bound vs unaltered GLS3000	Binder
0.25	B1
0.78	B2
0.34	B3
0.44	B4
0.45	B5
0.44	B6
0.26	B7
1.1	B8
0.39	B9
0.39	B10
1.65	B11
0.41	B12
0.17	B13
0.98	B14
0.36	B15
0.46	B16
0.47	B17

ratio of amount bound vs unaltered GLS3000	Binder
0.72	B18
0.36	B19
0.93	B20
0.61	B21
0.25	B22
0.32	B23
0.42	B24
0.5	B25
0.44	B26
0.37	B27
0.19	B28
0.4	B29
0.46	B30
0.3	B31
0.85	B32
0.83	B33
1.05	B34
